Patent publication US20170241986A1, “METHODS FOR IDENTIFYING COMPOUNDS THAT ALTER THE ACTIVITY OF IRHOM POLYPEPTIDES AND USE THEREOF” (The Jackson Laboratory, priority 2014, published 2017)

B1: p.I186T: HuWt clone containing the human tylosis missense mutation RHBDF2 p.I186T (protein)
chain: MASADKNGGSVSSVSSSRLQSRKPPNLSITIPPPEKETQAPGEQDSMLPEGFQNRRLKKSQPRTWAAHTTACPPSFLPKRKNPAYLKSVSLQEPRSRWQESSEKRPGFRRQASLSQSIRKGAAQWFGVSGDWEGQRQQWQRRSLHHCSMRYGRLKASCQRDLELPSQEAPSFQGTESPKPCKMPKTVDPLARGRAFRHPEEMDRPHAPHPPLTPGVLSLTSFTSVRSGYSHLPRRKRMSVAHMSLQAAAALLKGRSVLDATGQRCRVVKRSFAFPSFLEEDVVDGADTFDSSFFSKEEMSSMPDDVFESPPLSASYFRGIPHSASPVSPDGVQIPLKEYGRAPVPGPRRGKRIASKVKHFAFDRKKRHYGLGVVGNWLNRSYRRSISSTVQRQLESFDSHRPYFTYWLTFVHVIITLLVICTYGIAPVGFAQHVTTQLVLRNKGVYESVKYIQQENFWVGPSSIDLIHLGAKFSPCIRKDGQIEQLVLRERDLERDSGCCVQNDHSGCIQTQRKDCSETLATFVKWQDDTGPPMDKSDLGQKRTSGAVCHQDPRTCEEPASSGAHIWPDDITKWPICTEQARSNHTGFLHMDCEIKGRPCCIGTKGSCEITTREYCEFMHGYFHEEATLCSQVHCLDKVCGLLPFLNPEVPDQFYRLWLSLFLHAGVVHCLVSVVFQMTILRDLEKLAGWHRIAIIFILSGITGNLASAIFLPYRAEVGPAGSQFGLLACLFVELFQSWPLLERPWKAFLNLSAIVLFLFICGLLPWIDNIAHIFGFLSGLLLAFAFLPYITFGTSDKYRKRALILVSLLAFAGLFAALVLWLYIYPINWPWIEHLTCFPFTSRFCEKYELDQVLH
modifications: left off: small tags and cut ends
B2: Flag-tagged HuCub (human version of cub cDNA; N-terminal-truncated human iRhom2) (enzyme, not shown: small tags and cut ends)
chain: MSSMPDDVFESPPLSASYFRGIPHSASPVSPDGVQIPLKEYGRAPVPGPRRGKRIASKVKHFAFDRKKRHYGLGVVGNWLNRSYRRSISSTVQRQLESFDSHRPYFTYWLTFVHVIITLLVICTYGIAPVGFAQHVTTQLVLRNKGVYESVKYIQQENFWVGPSSIDLIHLGAKFSPCIRKDGQIEQLVLRERDLERDSGCCVQNDHSGCIQTQRKDCSETLATFVKWQDDTGPPMDKSDLGQKRTSGAVCHQDPRTCEEPASSGAHIWPDDITKWPICTEQARSNHTGFLHMDCEIKGRPCCIGTKGSCEITTREYCEFMHGYFHEEATLCSQVHCLDKVCGLLPFLNPEVPDQFYRLWLSLFLHAGVVHCLVSVVFQMTILRDLEKLAGWHRIAIIFILSGITGNLASAIFLPYRAEVGPAGSQFGLLACLFVELFQSWPLLERPWKAFLNLSAIVLFLFICGLLPWIDNIAHIFGFLSGLLLAFAFLPYITFGTSDKYRKRALILVSLLAFAGLFAALVLWLYIYPINWPWIEHLTCFPFTSRFCEKYELDQVLH
B3: HuCub: human RHBDF2 construct mimicking the mutant Rhbdf2cub transcript; N-terminal-truncated iRhom2 (protein)
chain: B2 chain
modifications: left off: small tags and cut ends
notes: human RHBDF2 construct mimicking the mutant Rhbdf2cub transcript; N-terminal-truncated iRhom2

What was measured:
[1] = test system: AREG; assay: ELISA of AREG in conditioned medium of transfected 293T cells (in vitro cleavage assay); format: cell-based, human
Description: To test whether Rhbdf2^cub, with its short N-terminal domain, could induce secretion of AREG independently of metalloprotease activity, we performed in vitro cleavage assays in the presence or absence of marimastat (MM), a potent broad-spectrum metalloprotease inhibitor that can block both ADAM17- and ADAM10-dependent shedding of substrates. Because of the significant homology between the mouse and human RHBDF2 genes we transfected 293T cells with human AREG either alone or with the human wildtype (HuWt) or human Cub (HuCub) RHBDF2 genes (FIG. 5A), and measured AREG levels in conditioned medium. In the absence of MM, we observed no difference in AREG levels between AREG-expressing and AREG/HuCub co-expressing cells, whereas co-expression of HuWt and AREG reduced AREG levels by ˜60% (FIG. 5B).
(§1) Human AREG, HB-EGF and EGF ELISA: Transient transfections were performed in 293T cells seeded in 24-well plates. Using lipofectamine LTX with Plus reagent 16.5 fmol of HuWt or HuCub was co-transfected with 25 ng of AREG or 50 ng of HB-EGF or 200 ng of EGF. The total amount of transfected DNA was made up to equal amount per well with pCMV6-AC-HA vector. After 24 h, DMSO or 10 μM MM in 1 ml of fresh medium replaced the old medium. After 24 h, 100 μl of supernatant was either undiluted (HB-EGF and EGF) or diluted five-fold (AREG) and subjected to ELISA as per the manufacturer's instructions (DY262, DY259, and DY236).

[2] = test system: AREG; assay: Co-immunoprecipitation of iRhom2-AREG complex; format: binding, human; conditions: COS7 cell lysates, anti-Flag immunoprecipitation
Method: Immunoprecipitation: 293T and COS7 cell transfections were carried according to the manufacturer's instructions (Life technologies). Cells plated in 6 well plates were treated with 400 μls of Cell Lysis Buffer (Cell Signaling, Danvers, Mass.) containing complete mini protease inhibitors (Roche Applied Science, Indianapolis, Ind.), incubated on ice for 10 min and centrifuged at 14,000 g for 10 min in a cold room. Cell supernatant was incubated overnight with 20 μls of magnetic beads conjugated with Anti-DDK antibody (Origene) in a cold room on a rocking platform. Following overnight incubation, beads/slurry was washed with three times with TBS-T, and protein was collected using 2×SDS-PAGE loading buffer.

[3] = test system: AREG; assay: Immunoblot of intracellular pro-AREG in co-transfected cells; format: cell-based, human; conditions: co-expression with AREG, DMSO or 10 μM MM
Method: SDS-PAGE and Immunoblotting: Cells were washed once with ice cold PBS and incubated with RIPA buffer (Cell Signaling, Danvers, Mass.) containing complete mini protease inhibitors (Roche Applied Science, Indianapolis, Ind.) on ice for 10 min. Cell lysate was centrifuged at 14,000 g for 10 min at 4° C. Supernatant was collected and stored at −80° C. until further use. Total amount of protein was quantified using a Qubit Fluorometer (Life technologies), and 10 μg of protein was loaded onto 4-12% pre-cast gels (Lonza, Allendale, N.J.) and run at 140V until the low molecular weight Precision plus protein standard (Bio-Rad) reached the bottom of the gel. Resolved proteins were electrophoretically transferred onto PVDF membranes using an iBLOT (Life technologies) before blocking in 5% BSA (Cell Signaling Technology) in TBST (20 mM Tris, 137 mM sodium chloride, and 0.1% Tween-20) for 1 h at room temperature. Membranes were then incubated overnight at 4° C. in primary antibodies (1:1000) followed by three 15 min washes in TBST and incubation in secondary antibodies (1:2000) for 1 h at room temperature. After another wash in TBST for 90 min, membranes were exposed to SuperSignal West Femto Substrate (Fisher Scientific) for 5 min for detection of horseradish peroxidase generated signal. Membranes were re-probed with actin-specific antibody. […]

[4] = biological target: T1, HA-tagged human AREG (amphiregulin) (human) (UniProt P15514); assay: cell-based or functional assay
T1 sequence (looked up): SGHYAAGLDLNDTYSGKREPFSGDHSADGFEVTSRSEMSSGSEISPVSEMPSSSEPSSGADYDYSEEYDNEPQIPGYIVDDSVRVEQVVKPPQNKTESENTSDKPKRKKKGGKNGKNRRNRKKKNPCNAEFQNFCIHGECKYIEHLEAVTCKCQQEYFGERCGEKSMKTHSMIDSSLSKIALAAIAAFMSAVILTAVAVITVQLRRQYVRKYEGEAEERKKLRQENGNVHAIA

[5] = test system: HB-EGF; assay: ELISA of HB-EGF in conditioned medium of transfected 293T cells; format: cell-based, human; conditions: 10 μM marimastat
Method: as §1

[6] = test system: EGF; assay: ELISA of EGF in conditioned medium of transfected 293T cells; format: cell-based, human; conditions: 10 μM marimastat
Method: as §1

[7] = co-expression with AREG, 10 μM marimastat

Molecule	levels of AREG in conditioned medium compared with HuWt [1, 7]	physical complex with AREG [2]	intracellular levels of AREG compared with HuWt [3]	AREG levels after co-transfection [4] [fold]	AREG levels in conditioned medium (ELISA) of co-transfected 293T cells in the presence of marimastat [4] [fold]	secretion of HB-EGF compared with empty vector transfected controls [5]	secretion of EGF compared with empty vector transfected controls [6]	secretion of AREG compared with empty vector transfected controls ([1]; 293T cells, 10 μM marimastat)	AREG levels versus AREG-expressing cells ([1]; 293T cells, co-expression with AREG, absence of MM)
B1	greater levels of AREG in conditioned medium	forms physical complexes with AREG	lower intracellular levels	–	–	–	–	–	–
B2	–	–	–	2 to 3	2	–	–	–	–
B3	greater levels of AREG in conditioned medium	forms physical complexes with AREG	lower intracellular levels	–	–	selectively increased secretion of AREG and HB-EGF	not EGF	selectively increased secretion of AREG	no difference
